Test results: PMC11654684, “The nucleocapsid architecture and structural atlas of the prototype baculovirus define the hallmarks of a new viral realm” (Science Advances, 2024)

Target: the molecule itself
Assay: cryo-EM structure; intact AcMNPV budded virions purified from Sf9 culture, TE buffer (50 mM Tris, 0.5 mM EDTA, pH 8.7); helical reconstruction (C14, 4.2 Å) and localized reconstruction of four neighbouring VP39 dimers of the tube (3.1 Å)

B1: major capsid protein (MCP) (natural protein)
chain: MALVPVGMAPRQMRVNRCIFASIVSFDACITYKSPCSPDAYHDDGWFICNNHLIKRFKMSKMVLPIFDEDDNQFKMTIARHLVGNKERGIKRILIPSATNYQDVFNLNSMMQAEQLIFHLIYNNENAVNTICDNLKYTEGFTSNTQRVIHSVYATTKSILDTTNPNTFCSRVSRDELRFFDVTNARALRGGAGDQLFNNYSGFLQNLIRRAVAPEYLQIDTEELRFRNCATCIIDETGLVASVPDGPELYNPIRSSDIMRSQPNRLQIRNVLKFEGDTRELDRTLSGYEEYPTYVPLFLGYQIINSENNFLRNDFIPRANPNATLGGGAVAGPAPGVAGEAGGGIAV
notes: Major capsid protein VP39 (AC89) of Autographa californica multiple nucleopolyhedrovirus, as it stands in the budded virion; the model comprises Val15 to Asn320 (loop Asp27 to Ser34 built only in some subunits); the last 30 residues are not visible; Native protein in the nucleocapsid of intact budded virions; contains a CCCH zinc finger; also called VP39; AC89; source: AcMNPV budded virions …
  stoichiometry N: 2
